Reference: patent US12060408B2, “Screening assays, modulators and modulation of activation of Receptor for Advanced Glycation End-products (RAGE)” (Monash University, priority 2017, dated 2024)
Ends that are not written are not given here.

How the values were obtained:
Type in all cases: cell-based
[1] = biological target: T1, CXCR4 (Homo sapiens, UniProt P61073); assay: Receptor-HIT BRET, β-arr2/Venus with RAGE/Rluc8 and CXCR4; details: in the presence of CXCR4
T1 construct: expressed in transfected cells; host or cells: HEK293FT, transient
Description: (§1) Bioluminescence Resonance Energy Transfer (BRET)
(§2) BRET is an established technology for studying protein-protein proximity in live cells, particularly involving GPCRs (Pfleger and Eidne, 2006). One protein of interest was linked to a bioluminescent donor enzyme, Rluc8, a variant of Renilla luciferase, and a second linked to an acceptor fluorophore, Venus, a variant of green fluorescent protein. If in close proximity (<10 nm), energy resulting from the rapid oxidation of a cell-permeable coelenterazine substrate by the donor can transfer to the acceptor, which in turn fluoresces at a longer characteristic wavelength.
(§3) Plasmids were transiently co-expressed in human embryonic kidney (HEK) 293FT cells and BRET measurements taken at 37° C. using a POLARstar Omega or LUMIstar plate reader (BMG Labtech, Mornington, Victoria, Australia) with 460-490 nm (‘donor emission’) and 520-550 nm (‘acceptor emission’) filters, or a VICTOR Light plate reader (Perkin Elmer, Glen Waverley, Victoria, Australia) with 400-475 nm (‘donor emission’) and 520-540 nm (‘acceptor emission’) filters, or a CLARIOstar plate reader (BMG Labtech, Mornington, Victoria, Australia) with 420-480 nm (‘donor emission’) and 520-620 nm (‘acceptor emission’) filters. […]
(§4) For BRET kinetic assays, the final pre-treatment reading is presented at the zero time point (time of ligand/vehicle addition). […]

[2] = biological target: T2, AT1 (Homo sapiens, UniProt P30556); assay: BRET between mCherry/RAGE338-361 and luciferase-tagged AT1; design: expressed in transfected cells; host or cells: HEK293FT, transient
T2 sequence (P30556 1-359): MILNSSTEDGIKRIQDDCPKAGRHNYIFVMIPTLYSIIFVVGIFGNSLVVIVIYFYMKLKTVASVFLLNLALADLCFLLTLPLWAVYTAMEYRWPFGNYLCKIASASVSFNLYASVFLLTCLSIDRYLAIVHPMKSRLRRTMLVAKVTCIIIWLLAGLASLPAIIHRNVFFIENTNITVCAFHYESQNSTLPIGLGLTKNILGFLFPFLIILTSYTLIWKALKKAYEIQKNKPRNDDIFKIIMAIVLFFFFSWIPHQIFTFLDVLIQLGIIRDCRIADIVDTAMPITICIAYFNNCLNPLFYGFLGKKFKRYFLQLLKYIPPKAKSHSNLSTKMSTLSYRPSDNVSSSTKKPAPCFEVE
Description: FIG. 21A. BRET between mCherry/RAGE338-361 and Nluc/AT1 is increased with Ang II. Data are presented as mean±SEM; n=3-5.
FIG. 21D. Lack of Ang II-induced BRET signal between AT1/Rluc8 and mCherry/RAGE338-361 where cells were transfected with 50 ng AT1/Rluc8 cDNA, 300 ng RAGE/Venus cDNA and 0, 50, 100, 200, 300 or 400 ng of mCherry/RAGE338-361 CDNA or pcDNA3 control plasmid as indicated. Data are presented as mean±SEM; n=3-4. Filters: mCherry 650 nm/Rluc8 450 nm.
as §1
BRET is an established technology for studying protein-protein proximity in live cells, particularly involving GPCRs (Pfleger and Eidne, 2006). […]
as §3

[3] = tested on: Human microvascular endothelial cells (HMEC); assay: Ang II-induced pro-inflammatory signalling (ICAM-1, MCP-1 RT-PCR) in HMEC; details: overexpression of construct
Description: Primary aortic endothelial cells (PMAEC) were isolated from the aortae of (wild-type) C57bl6 mice and AGER KO mice and cultured in Dulbecco's modified Eagle's medium (DMEM)/F12 endothelial cell growth supplement (ECGS) supplemented media. Chinese Hamster Ovary (CHO) cells were cultured using F12 media (10% FCS with 2 mM glutamine). Human microvascular endothelial cells (HMEC) were cultured in MCDB 131 medium (10% FCS with 10 mM glutamine, EGF and hydrocortisone).
Cellular Expression of Pro-Inflammatory Markers and Mediators by Quantitative Real-Time PCR
After 2 hours of exposure to Ang II (1 μM) or the RAGE ligand, S100A8/A9 (5 ng/ml) cells were placed in Trizol, mRNA extracted and cDNA synthesized. Changes in the gene expression of the NFκB subunit, p65 (RelA) or NFκB-activated target genes (e.g ICAM-1, VCAM-1) were estimated by quantitative real-time RT-PCR, performed using the TaqMan system based on real-time detection of accumulated fluorescence (ABI Prism 7700, Perkin-Elmer Inc, PE Biosystems, Foster City, CA, USA). Gene expression was normalized to 18S mRNA and reported as fold change compared to the level of expression in untreated control mice/cells, which were given an arbitrary value of 1.

[4] = biological target: T3, CXCR6 (Homo sapiens, UniProt O00574); assay: Receptor-HIT BRET, β-arr2/Venus with RAGE/Rluc8 and CXCR6; details: in the presence of CXCR6
T3 construct: expressed in transfected cells; host or cells: HEK293FT, transient
Description: as §1, §2, §3, §4

T1 sequence (P61073 whole entry): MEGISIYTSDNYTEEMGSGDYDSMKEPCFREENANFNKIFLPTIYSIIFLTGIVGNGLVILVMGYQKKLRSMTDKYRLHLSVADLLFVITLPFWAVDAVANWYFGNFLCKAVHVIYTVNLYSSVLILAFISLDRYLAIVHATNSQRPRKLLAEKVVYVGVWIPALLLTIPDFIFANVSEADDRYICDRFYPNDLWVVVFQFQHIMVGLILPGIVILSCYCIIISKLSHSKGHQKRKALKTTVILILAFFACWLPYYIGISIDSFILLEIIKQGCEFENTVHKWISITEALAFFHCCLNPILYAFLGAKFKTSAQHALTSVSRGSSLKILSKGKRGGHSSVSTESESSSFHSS
T1 sequence (P32121 whole entry partner): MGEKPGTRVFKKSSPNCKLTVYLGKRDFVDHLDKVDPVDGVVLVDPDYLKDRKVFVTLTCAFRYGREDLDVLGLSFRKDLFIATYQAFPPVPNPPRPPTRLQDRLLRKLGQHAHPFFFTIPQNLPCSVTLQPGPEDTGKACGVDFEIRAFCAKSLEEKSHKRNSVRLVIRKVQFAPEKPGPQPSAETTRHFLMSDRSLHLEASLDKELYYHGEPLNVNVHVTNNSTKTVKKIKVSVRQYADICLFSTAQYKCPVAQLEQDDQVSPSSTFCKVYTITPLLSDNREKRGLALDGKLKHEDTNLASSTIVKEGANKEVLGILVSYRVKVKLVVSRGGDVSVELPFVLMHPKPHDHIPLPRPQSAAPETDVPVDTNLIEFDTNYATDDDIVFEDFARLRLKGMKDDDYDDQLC
T3 sequence (O00574 whole entry): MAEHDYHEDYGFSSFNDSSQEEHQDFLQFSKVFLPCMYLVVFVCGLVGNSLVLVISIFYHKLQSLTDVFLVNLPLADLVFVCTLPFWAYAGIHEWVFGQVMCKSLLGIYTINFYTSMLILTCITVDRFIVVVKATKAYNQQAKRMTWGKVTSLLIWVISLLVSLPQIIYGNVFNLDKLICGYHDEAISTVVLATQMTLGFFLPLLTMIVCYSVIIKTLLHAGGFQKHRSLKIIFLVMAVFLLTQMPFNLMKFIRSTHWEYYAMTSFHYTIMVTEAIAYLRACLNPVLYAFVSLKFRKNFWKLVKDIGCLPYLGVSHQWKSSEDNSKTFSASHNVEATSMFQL
T3 sequence (P32121 whole entry partner): as the sequence (P32121 whole entry partner) above

“CXCL 12: chemokine ligand used to activate CXCR4” was tested, and the “β-arr2/Venus proximity to RAGE/Rluc8” value [1] was “reduction”.

In the case of “mCherry/RAGE338-361: mCherry fusion of RAGE338-361 (LGTLALALGILGGLGTAALLIGVI; also: mCherry fusion)”, the “Ang II-induced BRET signal with AT1/Rluc8” value ([2]; cells also transfected with RAGE/Venus cDNA, filters mCherry 650 nm/Rluc8 450 nm) is reported as “Lack of”, the “BRET with Nluc/AT1” value ([2]; with Ang II) is reported as “increased” and the “inhibition of Ang II-induced ICAM-1 expression” value [3] is reported as “inhibited”.

B1: CXCL16: chemokine ligand used to activate CXCR6 (protein)
chain: NEGSVTGSCYCGKRISSDSPPSVQFMNRLRKHLRAYHRCLYYTRFQLLSWSVCGGNKDPWVQELMSCLDLKECGHAYSGIVAHQKHLLP
With B1 the “recruitment of β-arr2/Venus proximal to RAGE/Rluc8” value [4] was “recruitment”.
